Assay results from the supplement of paper PMC10724198.
± gives the standard deviation of the averaged measurements.

Tested on: Saccharomyces cerevisiae
Assay: protein stability index of tFT-peptide fusion (C-terminal peptide) (PSI (0-1 scale)); higher = more stable (slower turnover)
Conditions: genetic background: wild type; temperature: 30 C
Description: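 MPS profiling in S. cerevisiae of the yeast C-terminome library: the last 12 aa of each annotated ORF are fused to the C-terminus of a sfGFP-mCherry timer, after a GGGS linker. Cells are FACS-sorted into 8 mCherry/sfGFP bins and deep-sequenced. PSI runs from 0 (unstable) to 1 (stable); wild type and das1Δ backgrounds, two technical replicates each.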

In order of falling protein stability index:
1. SIICIETNKAIR [HPM1 C-terminal 12 aa]  0.757 ± 0.099
2. TDISGEKNSSKI [RLM1 C-terminal 12 aa]  0.756 ± 0.031
3. TIDFFDPVKLKR [YEL025C C-terminal 12 aa]  0.755 ± 0.015
4. STLSRPFTWEEI [ATG34 C-terminal 12 aa]  0.75193 ± 0.00031
5. TGMGAAAIFIKE [POT1 C-terminal 12 aa]  0.752 ± 0.049
6. SAITKNLLDDFV [RAV1 C-terminal 12 aa]  0.745 ± 0.066
7. SQGNVYLPGVAW [NOC4 C-terminal 12 aa]  0.738 ± 0.081
8. SSYNSNVGHIKN [WHI3 C-terminal 12 aa]  0.736 ± 0.0042
9. SLIPRFDNLLSK [GGC1 C-terminal 12 aa]  0.732 ± 0.015
10. RRSKKWYSFIFN [SCO2 C-terminal 12 aa]  0.731 ± 0.098
11. SHPSFKQLLIQK [MLO1 C-terminal 12 aa]  0.73 ± 0.025
12. SEPVKQVLDSKE [NMA2 C-terminal 12 aa]  0.728 ± 0.078
13. TKEEIMHGLQAK [RPN5 C-terminal 12 aa]  0.728 ± 0.01
14. TLNFEEARKEYV [YDR509W C-terminal 12 aa]  0.728 ± 0.035
15. RVFEFLEKQKRE [MRPL40 C-terminal 12 aa]  0.723 ± 0.028
16. SQLLNLLQDLDT [ENV7 C-terminal 12 aa]  0.722 ± 0.011
17. TEEVEKAISKSQ [YFH1 C-terminal 12 aa]  0.7208 ± 0.0067
18. RYAKIHEKHVSA [ASN2 C-terminal 12 aa]  0.7183 ± 0.0066
19. SDIFSFLDETYE [PHO92 C-terminal 12 aa]  0.718 ± 0.02
20. SILTHSTSPDSR [HYM1 C-terminal 12 aa]  0.718 ± 0.076
21. TDTTLIYDIDLE [SPT8 C-terminal 12 aa]  0.718 ± 0.039
22. SPIQLKDLESQI [SYS1 C-terminal 12 aa]  0.717 ± 0.0082
23. SLLLEKLDPEIE [UBX5 C-terminal 12 aa]  0.716 ± 0.013
24. SSIFVRVYKFWC [BAP3 C-terminal 12 aa]  0.716 ± 0.096
25. SILGMQDMWKAT [PEX11 C-terminal 12 aa]  0.713 ± 0.022
26. TDGPNEKWLPDY [SKS1 C-terminal 12 aa]  0.712 ± 0.046
27. SITLDDLENIFN [GDS1 C-terminal 12 aa]  0.711 ± 0.021
28. SKSGSGGCCIIS [RAS2 C-terminal 12 aa]  0.711 ± 0.011
29. TLEDLGAKVSLE [MNP1 C-terminal 12 aa]  0.711 ± 0.031
30. TALDYVSEKKKN [STE24 C-terminal 12 aa]  0.7093 ± 0.0027
31. TESENDALDDLL [TLG2 C-terminal 12 aa]  0.707 ± 0.0078
32. SPFIPKKRKPRS [SEN1 C-terminal 12 aa]  0.704 ± 0.036
33. RVVDLIEYVAKA [TDH1 C-terminal 12 aa]  0.703 ± 0.055
34. SNYNNRTTDMPL [PSP2 C-terminal 12 aa]  0.703 ± 0.1
35. TAAQMLEVQNEA [ARI1 C-terminal 12 aa]  0.7016 ± 0.0034
36. SRFRTNIAFITQ [YJL015C C-terminal 12 aa]  0.70081 ± 0.00066
37. SFTDVLGQEQFI [YLR252W C-terminal 12 aa]  0.699 ± 0.031
38. SSVKNSVEMTDF [TDA11 C-terminal 12 aa]  0.698 ± 0.012
39. SVLQQTSKEPFW [HOS4 C-terminal 12 aa]  0.6975 ± 0.0026
40. RVDGKIVVTPQI [RPC53 C-terminal 12 aa]  0.694 ± 0.012
41. SRLFSEEKSSVH [YJL150W C-terminal 12 aa]  0.694 ± 0.024
42. RRPAVIKALRGE [URE2 C-terminal 12 aa]  0.693 ± 0.023
43. RQTRNQTKELDS [DPB11 C-terminal 12 aa]  0.691 ± 0.037
44. SENRFELAYFTS [YLR317W C-terminal 12 aa]  0.6901 ± 0.0013
45. SFSDLTLHAIEY [BER1 C-terminal 12 aa]  0.69 ± 0.019
46. RRHYSNEDSSFL [APC9 C-terminal 12 aa]  0.689 ± 0.036
47. SQAIPKKKKVLE [MEK1 C-terminal 12 aa]  0.6887 ± 0.0063
48. RRVKSLKTSKKH [PAL2 C-terminal 12 aa]  0.686 ± 0.0093
49. RSIKRPELGLRV [STT3 C-terminal 12 aa]  0.6862 ± 0.0065
50. SSSSNFLEESSS [YER148W-A C-terminal 12 aa]  0.6861 ± 0.006
51. SSTTALDALNKE [TGL1 C-terminal 12 aa]  0.684 ± 0.048
52. RQNTLSLWRYRK [RPL15A C-terminal 12 aa]  0.682 ± 0.039
53. SRGHDLASEYPL [ERS1 C-terminal 12 aa]  0.682 ± 0.0085
54. STIQTTSVDPTT [BSC1 C-terminal 12 aa]  0.682 ± 0.036
55. RSTAQRGGYSAV [ATG27 C-terminal 12 aa]  0.679 ± 0.025
56. STKILETSANYL [RVB1 C-terminal 12 aa]  0.679 ± 0.047
57. SYEIFEGSKKVM [CET1 C-terminal 12 aa]  0.6785 ± 0.0039
58. RRGDMCDVKENI [PUS7 C-terminal 12 aa]  0.677 ± 0.031
59. SRQFEQNLQIND [SLF1 C-terminal 12 aa]  0.676 ± 0.013
60. TKDGEVVKESKK [PET117 C-terminal 12 aa]  0.676 ± 0.027
61. SYKSNQPSSQNT [MDM36 C-terminal 12 aa]  0.675 ± 0.0096
62. RSLSSRSKECSK [NOC3 C-terminal 12 aa]  0.672 ± 0.045
63. SSQQLTLRPPLG [YGL109W C-terminal 12 aa]  0.669 ± 0.0086
64. SVHLDQLLDGKE [CSI2 C-terminal 12 aa]  0.669 ± 0.013
65. SRSGPDSTNIKL [MPP10 C-terminal 12 aa]  0.667 ± 0.0034
66. SGKFNGKKKSRR [FAF1 C-terminal 12 aa]  0.666 ± 0.018
67. RRTSSISTYLIL [YBL107W-A C-terminal 12 aa]  0.662 ± 0.043
68. TNGNKSCLYWRV [FMP25 C-terminal 12 aa]  0.66 ± 0.044
69. SLSSRGKIFSST [EFR3 C-terminal 12 aa]  0.657 ± 0.011
70. RYFCHLFRCSII [YDL022C-A C-terminal 12 aa]  0.654 ± 0.021
71. SAYMYTKRRFGF [MNR2 C-terminal 12 aa]  0.647 ± 0.017
72. RQEYKFKKSLLT [YKL131W C-terminal 12 aa]  0.625 ± 0.012
73. SFERLLVETIYS [ALG13 C-terminal 12 aa]  0.624 ± 0.01
74. SIINPSSNGCNK [YNL235C C-terminal 12 aa]  0.615 ± 0.018
75. STIRRLREMVEA [RPL43A C-terminal 12 aa]  0.539 ± 0.028
76. RQMTSSFFLVFA [YDR118W-A C-terminal 12 aa]  0.508 ± 0.017
77. SFLFGLYLLLHP [SPR2 C-terminal 12 aa]  0.484 ± 0.014
78. SHMILYQQQECY [YER181C C-terminal 12 aa]  0.46 ± 0.011
79. SLNLILISMTFI [YCR097W-A C-terminal 12 aa]  0.449 ± 0.0049
80. SSNFASNIFSLF [YBR089W C-terminal 12 aa]  0.448 ± 0.01
81. SIIFLLLSYLLF [SAG1 C-terminal 12 aa]  0.381 ± 0.0067
82. SIFSYCIIYFIS [YDR524C-A C-terminal 12 aa]  0.111 ± 0.02
